T1: Hof1-4E–3HA (budding yeast, UniProt Q05080 1-669, S313E | S421E | S533E | S563E)
T1 sequence (looked up): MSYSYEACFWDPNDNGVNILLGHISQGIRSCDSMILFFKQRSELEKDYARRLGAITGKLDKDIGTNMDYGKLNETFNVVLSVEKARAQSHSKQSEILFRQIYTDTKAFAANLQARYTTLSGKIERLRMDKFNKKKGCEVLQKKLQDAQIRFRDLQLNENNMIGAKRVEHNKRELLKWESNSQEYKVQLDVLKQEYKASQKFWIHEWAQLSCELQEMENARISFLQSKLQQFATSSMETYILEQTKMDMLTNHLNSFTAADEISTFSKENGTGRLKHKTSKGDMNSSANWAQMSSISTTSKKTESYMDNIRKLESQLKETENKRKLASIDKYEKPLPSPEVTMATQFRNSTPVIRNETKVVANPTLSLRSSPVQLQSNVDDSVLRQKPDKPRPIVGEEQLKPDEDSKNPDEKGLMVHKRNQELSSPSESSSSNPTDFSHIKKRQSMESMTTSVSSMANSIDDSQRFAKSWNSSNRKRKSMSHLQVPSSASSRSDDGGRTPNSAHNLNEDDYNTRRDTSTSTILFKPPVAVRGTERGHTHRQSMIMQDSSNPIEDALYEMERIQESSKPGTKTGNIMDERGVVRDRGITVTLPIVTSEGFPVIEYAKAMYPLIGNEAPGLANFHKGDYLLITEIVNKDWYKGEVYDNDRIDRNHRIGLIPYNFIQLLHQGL


How the values were obtained:
[1] = target: T1, Hof1-4E–3HA; assay: co-IP
[2] = target: septin complex (6His-Cdc12-Cdc3-Cdc10-Cdc11) (budding yeast, UniProt P32468 1-407; P32457 1-520; P25342 1-322; P32458 1-415); assay: pull-down
Sequence of septin complex (6His-Cdc12-Cdc3-Cdc10-Cdc11) (P32468 whole entry, chain 1 of 3): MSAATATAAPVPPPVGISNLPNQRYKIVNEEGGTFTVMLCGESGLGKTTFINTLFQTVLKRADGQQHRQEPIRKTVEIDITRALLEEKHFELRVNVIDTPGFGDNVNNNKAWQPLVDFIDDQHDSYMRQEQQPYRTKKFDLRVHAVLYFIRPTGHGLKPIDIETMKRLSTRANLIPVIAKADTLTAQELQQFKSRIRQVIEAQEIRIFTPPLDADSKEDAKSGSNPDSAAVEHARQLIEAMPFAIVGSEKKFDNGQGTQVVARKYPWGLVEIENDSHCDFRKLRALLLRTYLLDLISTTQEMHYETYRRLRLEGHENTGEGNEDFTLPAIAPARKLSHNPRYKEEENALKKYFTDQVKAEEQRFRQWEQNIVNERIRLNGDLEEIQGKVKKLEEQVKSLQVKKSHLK
Sequence of septin complex (6His-Cdc12-Cdc3-Cdc10-Cdc11) (P32457 whole entry, chain 2 of 3): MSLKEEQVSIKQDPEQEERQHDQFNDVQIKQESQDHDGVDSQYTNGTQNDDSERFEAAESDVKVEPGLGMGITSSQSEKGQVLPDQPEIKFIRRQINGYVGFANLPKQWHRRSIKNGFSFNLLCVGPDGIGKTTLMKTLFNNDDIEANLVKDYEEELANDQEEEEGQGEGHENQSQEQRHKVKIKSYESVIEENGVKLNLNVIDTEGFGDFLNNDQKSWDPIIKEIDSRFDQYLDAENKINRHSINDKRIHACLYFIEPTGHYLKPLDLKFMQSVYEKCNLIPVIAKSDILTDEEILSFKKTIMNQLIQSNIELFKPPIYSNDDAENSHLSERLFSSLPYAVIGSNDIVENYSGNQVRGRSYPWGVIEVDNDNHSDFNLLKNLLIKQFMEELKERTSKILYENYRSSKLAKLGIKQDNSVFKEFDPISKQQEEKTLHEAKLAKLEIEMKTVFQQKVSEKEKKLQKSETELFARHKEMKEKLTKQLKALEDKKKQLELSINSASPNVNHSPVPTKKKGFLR
Sequence of septin complex (6His-Cdc12-Cdc3-Cdc10-Cdc11) (P32458 whole entry, chain 4 of 3): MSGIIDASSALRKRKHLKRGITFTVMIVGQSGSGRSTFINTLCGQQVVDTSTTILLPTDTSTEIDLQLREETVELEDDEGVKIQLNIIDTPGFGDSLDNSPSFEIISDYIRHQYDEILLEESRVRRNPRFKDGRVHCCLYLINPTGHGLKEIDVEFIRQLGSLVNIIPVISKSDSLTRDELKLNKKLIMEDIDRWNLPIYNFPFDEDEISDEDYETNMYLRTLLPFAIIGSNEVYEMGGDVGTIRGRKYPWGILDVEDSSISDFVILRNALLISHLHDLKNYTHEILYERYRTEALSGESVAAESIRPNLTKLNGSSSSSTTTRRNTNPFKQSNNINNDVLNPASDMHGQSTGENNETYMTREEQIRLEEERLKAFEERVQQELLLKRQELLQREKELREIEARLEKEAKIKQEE

Binder | fold less coimmunoprecipitated than with Hof1-3HA [1] [fold] | binding result [2]
Cdc10-TAP (natural protein, budding yeast, UniProt P25342 1-322, looked up) MDPLSSVQPASYVGFDTITNQIEHRLLKKGFQFNIMVVGQSGLGKSTLINTLFASHLIDSATGDDISALPVTKTTEMKISTHTLVEDRVRLNINVIDTPGFGDFIDNSKAWEPIVKYIKEQHSQYLRKELTAQRERFITDTRVHAILYFLQPNGKELSRLDVEALKRLTEIANVIPVIGKSDTLTLDERTEFRELIQNEFEKYNFKIYPYDSEELTDEELELNRSVRSIIPFAVVGSENEIEINGETFRGRKTRWSAINVEDINQCDFVYLREFLIRTHLQDLIETTSYIHYEGFRARQLIALKENANSRSSAHMSSNAIQR | 2.5 | –
GST-HOF1-SID (aa 200–355) (domain or fragment, budding yeast, UniProt Q05080 200-355, looked up) KFWIHEWAQLSCELQEMENARISFLQSKLQQFATSSMETYILEQTKMDMLTNHLNSFTAADEISTFSKENGTGRLKHKTSKGDMNSSANWAQMSSISTTSKKTESYMDNIRKLSSQLKETENKRKLASIDKYEKPLPSPEVTMATQFRNSTPVIRN | – | binds

— PMC3639042 (Molecular Biology of the Cell, 2013)
